From publication PMC9548623

Key:
[1] = biological target: DH475 Fab, heavy chain D77A (human); experiment: BLI; BLItz; Fab (0.2 mg/mL) immobilised on Anti-Human Fab-CH1 2nd Generation (FAB2G) biosensors, Env constructs titrated; 2.5 mM Tris pH 7.5, 350 mM NaCl; global fit
[2] = biological target: DH475 Fab, heavy chain N30A (human); experiment: as above
[3] = biological target: DH475 Fab, heavy chain N31A (human); experiment: as above
[4] = biological target: DH475 Fab, heavy chain W104A (human); experiment: as above
Sequence of DH475 Fab, heavy chain W104A (human) (heavy, as listed by the source, chain 1 of 2): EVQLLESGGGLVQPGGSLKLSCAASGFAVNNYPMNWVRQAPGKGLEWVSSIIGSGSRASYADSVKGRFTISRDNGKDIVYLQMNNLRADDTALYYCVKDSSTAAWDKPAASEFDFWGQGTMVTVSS
Sequence of DH475 Fab, heavy chain W104A (human) (light, as listed by the source, chain 2 of 2): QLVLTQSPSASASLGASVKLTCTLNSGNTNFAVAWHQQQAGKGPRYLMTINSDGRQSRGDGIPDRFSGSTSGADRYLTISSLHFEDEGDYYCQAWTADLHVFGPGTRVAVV

[5] = biological target: CH848 TF DS SOSIP Env trimer (HIV-1 (donor CH848, transmitted/founder)); experiment: ITC; 157 uM DH272.2 injected into a cell with 7.59 uM CH848 TF DS SOSIP Env; single site model

Sequence of DH475 Fab, heavy chain D77A (human) (heavy, as listed by the source, chain 1 of 2): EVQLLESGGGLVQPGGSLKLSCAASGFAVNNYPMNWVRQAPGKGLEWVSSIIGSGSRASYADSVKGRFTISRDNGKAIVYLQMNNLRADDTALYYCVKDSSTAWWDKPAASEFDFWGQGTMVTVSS
Sequence of DH475 Fab, heavy chain D77A (human) (light, as listed by the source, chain 2 of 2): as the sequence (light, as listed by the source, chain 2 of 2) above
Sequence of DH475 Fab, heavy chain N30A (human) (heavy, as listed by the source, chain 1 of 2): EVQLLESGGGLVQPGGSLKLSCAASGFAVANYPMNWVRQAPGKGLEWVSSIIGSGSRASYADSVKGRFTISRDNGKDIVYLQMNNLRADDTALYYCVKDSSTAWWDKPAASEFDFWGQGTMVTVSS
Sequence of DH475 Fab, heavy chain N30A (human) (light, as listed by the source, chain 2 of 2): as the sequence (light, as listed by the source, chain 2 of 2) above
Sequence of DH475 Fab, heavy chain N31A (human) (heavy, as listed by the source, chain 1 of 2): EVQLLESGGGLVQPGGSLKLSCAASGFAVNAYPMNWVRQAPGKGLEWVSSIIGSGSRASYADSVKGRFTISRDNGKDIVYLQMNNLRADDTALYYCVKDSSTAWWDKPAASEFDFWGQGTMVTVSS
Sequence of DH475 Fab, heavy chain N31A (human) (light, as listed by the source, chain 2 of 2): as the sequence (light, as listed by the source, chain 2 of 2) above

## CH848 transmitted/founder (TF) gp120 core (domain or fragment)
[1]
  Kd: > 50 µM
[2]
  Kd: > 50 µM
[3]
  Kd: > 50 µM
[4]
  Kd: > 50 µM

B1: DH272.2 Fab (Fab, V domains shown)
VH: QVQLVQSGAEVKKPGASVKVSCQASGYRVSDHFVNWMRQAPGQRLEWIGWFNPDSRDTHYADKFKGRVTSTKIGNTVYMQLSSLRSDDTAVYYCARERYDFHSGLEGSFDFWGQGTLVTV
VL: DIVMTQSPLSLPVTLGQPASISCRSSQSLVHNYGNTYLNWFQQRPGQSPRRLIYKVSGRDSGVPDRFSGGGSGTDFTLKISSVEAEDVGVYYCMQGTHWPRTFGQGTKLEIN
[5]
  stoichiometry N: 3
